This note sets out measurements from IntAct's records for PubMed 18550832.

This assay addresses stk39_mouse Stk39 (UniProt Q9Z1W9).

With “Serine/threonine-protein kinase WNK3 (Homo sapiens), Q9BYP7-2 F1337A”, the “effect of a mutation on the interaction” value is “disrupting interaction”.
